The DeepSol protein solubility set

Assay: soluble on expression in E. coli; label from the status in PepcDB or PDB records
In the case of “MNFENDDIIHAPTTSSLILEERHDSELFRVYALILDGITDQVLLPGKKLTESELCRQMVCSRNTVRGALSLLAHDKIVDLQPNRGAFVHVPDLKEMQDVFNARIEMETMILNILADLPDLETRLKPLYAMIRREEEASGRGDRVGWNRLSNAFHVELARLVGNDVLFDIMNTLCARSSLIVAVAGVHREEKHAINTHTHSEHREILDLLLAGRRNRVVKILRRHLGNCMERLEKTLED”, the “soluble on expression in E. coli” value is reported as “not soluble”.
With “MIPAEIAKTAFKSLLPVLERGVVAADRAFSGYIQPRRLRGKLLLQPYVGWGTPREVELTGRVLLPRALAPARKGDPRWRNFHNIVRRLFSREVGGVRVAGTLSDQTVSAVSDSDGYFTLHFTFPRPIAAGWHEVRLQMEDRQEDAARARVQVVGKARFGIISDLDDTVIQSDVTSLPRMLMTSLTGNARTRSPFPGVGALYRALTREGEARNPIFYVSSSPWNFFDLLWQFLDYRRIPLGPLFLRNWGMDLLGGHGGYKHGVIERIFHRYPNLNFVLVGDSGEKDPEIYAEVVRRFPGRVLAVYIRDVTGAERDEGVLRLREEIRKAGADLVLASDSLSAAGHALALGLITPGEYRSVLTSVARTYETLEHHHHHH” the “soluble on expression in E. coli” value was “soluble”.
With “MGSDKIHHHHHHMAAPAGGGGSAVSVLAPNGRRHTVKVTPSTVLLQVLEDTCRRQDFNPSEYDLKFQRTVLDLSLQWRFANLPNNAKLEMVPVSRSREGPENIVRIAFQLDDGSRLQDAFCSRQTLWELLSHFAQTRERLQQLGEKTPVCVYMRNEVTGRAALQNTTLQSLGLTGGSATIRFVIKQCDTAGKQESIAVRSKAPGSPVSSLSADQASSSTLLPLNSGEFSRGDLNHEGDANTSGTGLEGGPKPTDAQTKQSTSEPASAPFVPFSGGGQRLGGPSASLRPLTSPSANSSKSFSGPGGPSKPKKPKPGEEPQQEPEPPVDRDPVVYHPDLEDLLQPWPAEVPDEFFEVTVDDVRRRLAQLKSERKRLEEAPLVTKAFREAQMKEKLERYPKVALRVLFPDRYILQGFFRPSETVGDLRDFVRSHLGNPELSFYLFIAPPKMVLDDHTLTLFQANLFPAALVHFGAEEPTGLYLEPGLLEHTVSPSTADVLVARCMSRASGSPPLLPAPDPVSLESEPIAEDGALGPPEPIQGTAQPVKRSLGKVPKWLKLPASKR” the “soluble on expression in E. coli” value was “not soluble”.
With “MPASQIKSAVTSPLLPQSPSLFEKYPRPHKKLKQLHWEKLDCTDNSIWGTGKAEKFADDLYEKGVLADLEKAFAAREIKSLASKRKEDLQKITFLSRDISQQFGINLHMYSSLSVADLVKKILNCDRDFLQTPSVVEFLSKSEIIEVSVNLARNYAPYSTDWEGVRNLEDAKPPEKDPNDLQRADQIYLQLMVNLESYWGSRMRALTVVTSYEREYNELLAKLRKVDKAVSALQESDNLRNVFNVILAVGNFMNDTSKQAQGFKLSTLQRLTFIKDTTNSMTFLNYVEKIVRLNYPSFNDFLSELEPVLDVVKVSIEQLVNDCKDFSQSIVNVERSVEIGNLSDSSKFHPLDKVLIKTLPVLPEARKKGDLLEDEVKLTIMEFESLMHTYGEDSGDKFAKISFFKKFADFINEYKKAQAQNLAAEEEERLYIKHKKIVEEQQK” the “soluble on expression in E. coli” value was “soluble”.
With “MEDESSAKYPYRESMPRAERVSMKALQDEWRHLFITRAEGENNIHNPKIPEDTNDFDDDMPIECNESEEESITGDREVFSVHHNEEDEDQEDSSQICEESEPQELPKLCRRTDKHFKELPSGLINIIKDLSLDISGLYLPQTLLTGRIDLNDEFVASIEVEDAEKSKEILRRRRERPLALRQFSHALSRAMANLRTYHYDVTTEKIERCPMRNSCKGHLKWEQMRKYRAQCKKNFKDPSLATVEDMMSK” the “soluble on expression in E. coli” value was “not soluble”.
With “SEQHAQGADAVVDLNNELKTRREKLANLREQGIAFPNDFRRDHTSDQLHAEFDGKENEELEALNIEVAVAGRMMTRRIMGKASFVTLQDVGGRIQLYVARDDLPEGVYNEQFKKWDLGDILGAKGKLFKTKTGELSIHCTELRLLTKALRPLPDKFHGLQDQEARYRQRYLDLISNDESRNTFKVRSQILSGIRQFMVNRGFMEVETPMMQVIPGGAAARPFITHHNALDLDMYLRIAPELYLKRLVVGGFERVFEINRNFRNEGISVRHNPEFTMMELYMAYADYKDLIELTESLFRTLAQDILGKTEVTYGDVTLDFGKPFEKLTMREAIKKYRPETDMADLDNFDSAKAIAESIGIHVEKSWGLGRIVTEIFEEVAEAHLIQPTFITEYPAEVSPLARRNDVNPEITDRFEFFIGGREIGNGFSELNDAEDQAQRFLDQVAAKDAGDDEAMFYDEDYVTALEHGLPPTAGLGIGIDRMVMLFTNSHTIRDVILFPAMRPVK” the “soluble on expression in E. coli” value was “soluble”.
With “MGSDKIHHHHHHMYTFQPGDHLVTNIDPLGLTEHHGLYVGHGHVIHLSKQGIIEEINLQQFAGGHSVRVKKSTLFPHQAIELARSQLGHSPYGVATNNCEHFVNECLEGSSTSNQVSNLTHIALQGSARAGLLGSSASKLATGTVANVVLTSTAIKMTGEYLGLPDNVNTLLGTPGDLVAKPAECLLKGTSQTLGETYTCLRQGEMTGAGIKLVTGSIETGLNTVLTTAEVGINGVKAGAELIADAWHWLRS” the “soluble on expression in E. coli” value was “not soluble”.
In the case of “MNLYIASIKLWFKGFKENTERSITYSFEPNKINVITGDSSTGKSSILDIIDYLLLSDNPTIVENIINENVEFYGMNIFLEERSYILMRKAPHSGQGTQDVYWKEQEEYPMPYIQTHSVGEMRTILTRMFYVPQHETKVGNRKYNMTFRHFLPFNYLTEDIISSANTYFDTAFFINRSYDVFLDYALELVNGIQYHNANEIKAKIEKAEIDLKQYQKKHQIAQENATKYKASLTSIYDDALSLNLIPADNFFVRENAHEMLHYIKEALAAYNKLIKNDEDTKKLELLKKERYELNNKLSIYNSLLAEMQKQKSSGKKIQDSLRPITFIKEHIDEVIISPETIELLHLLEKQLVQIKESRKEKPKLPHDFALRHEELKDKLKACESKLKELTILRKTIANPKWLERAIGLKYRLENLKRPKEDTYQASTEQNMISLIESLKIEQKNMSLLPHDVKEKLNSYINKYFHSINGIVDSYPDSTMRYDDDERRISLLNNGEDYPVRNIGSKSNYMFLHLCFFLGLHESIMFHRSKHVGSFLFIDQPSMPYYADKGTLDNDDKKQLIKAFRLLNEFMEEIIGNQNRSFQMILIEHADESYWKELEYFHTTATFSKIAQGGLIPKYIYE”, the “soluble on expression in E. coli” value is reported as “not soluble”.
For “MVENVKIIRKKIKNMYLVVNPDCSVVVKAPVHVSDEYINSFIKKKESWIKKHLENFESLNSKSVAKKYIDGELFKYLGNEYILKVYPSKKEYLEISDNFFNLYVLETNDFEKKKKIIEKFYRKRAEIELFEIFKSNYKVVTEKMPDFSVRKMKKRWGSCSFHKNKIILNERLIEKSKDCIEYVVFHELAHLRYPNHSKDFYNYLTELMPEWKVKKLKLNERHLEHHHHHH”, the “soluble on expression in E. coli” value was “soluble”.
In the case of “MNDLEKKFYELPELPYPYDALEPHISREQLTIHHQKHHQAYVDGANALLRKLDEARESDTDVDIKAALKELSFHVGGYVLHLFFWGNMGPADECGGEPSGKLAEYIEKDFGSFERFRKEFSQAAISAEGSGWAVLTYCQRTDRLFIMQVEKHNVNVIPHFRILLVLDVWEHAYYIDYRNVRPDYVEAFWNIVNWKEVEKRFEDIL”, the “soluble on expression in E. coli” value is reported as “soluble”.
For “MSLGGNGREKDHASELRSIFSLKKIADAVNGYEEAKYVVFGIPFDNTSSYRRGSKYAPDSIRGAYVNLESYEYSYGIDLLASGMADLGDMEESEDVEYVIDTVESVVSAVMSDGKIPIMLGGEHSITVGAVRALPKDVDLVIVDAHSDFRSSYMGNKYNHACVTRRALDLLGEGRITSIGIRSVSREEFEDPDFRKVSFISSFDVKKNGIDKYIEEVDRKSRRVYISVDMDGIDPAYAPAVGTPEPFGLADTDVRRLIERLSYKAVGFDIVEFSPLYDNGNTSMLAAKLLQVFIASREKYYKEHIEGHHHHHH”, the “soluble on expression in E. coli” value was “soluble”.
With “MNASSEFTLQFESHAVRVQVDEAGTPWFNANDICTAVELLNPCAALAQHVGARNVSKRKIIDTIGRTQRANYLNEPGVLTLLIGSTKEAAKRLRRWLISEALPAAAVQKAGQHSVPQHHAPSISTPFQPTEDHTMNAITPFQFESHAVRTVVDDHGEVWFVGKDVADVLGYTNHNKALGDHCKGVPKRYPLQTPGGIQEIRIISEPDMLRLIVSSKLPAAERFERWVTSEVLPTIHKTGNRPALDHSTHSANAITPFQFESKDVRIQLDEASAPWFNANDVCSILEFGNPRQAIESHVDVEDVQKLDATDNLGRTRQTNHINESGLYALIMGSTKPAAKRFKRWVTSEVLPTLRKTGTYSTPGALPTLPGPTQDRIAALLLIGQYISTVPGVKPGIAAAATLACIKSNTNLTTEEIRRALPALRDPLCMLNATQLGKQLHCSAKAVNQLLASRGLQFRNERDDWELTEAGRVWGEAIPYSRNGHSSYQILWNPTVVDSLKVAA” the “soluble on expression in E. coli” value was “soluble”.
For “MSLRDQFQLAIRVADLLQHITQMKRGQGYGFKEEYEALPEGQTASWDTAKEDENRNKNRYGNIISYDHSRVRLLVLDGDPHSDYINANYIDGYHRPRHYIATQGPMQETVKDFWRMIWQENSASIVMVTNLVEVGRVKCVRYWPDDTEVYGDIKVTLIETEPLAEYVIRTFTVQKKGYHEIRELRLFHFTSWPDHGVPCYATGLLGFVRQVKFLNPPEAGPIVVHCSAGAGRTGCFIAIDTMLDMAENERVVDIFNCVRELRAQRVNLVQTEEQYVFVHDAILEACLCGNTAIPVCEFRSLYYNISRLDPQTNSSQIKDEFQTLNIVTPRVRPEDCSIGLLPRNHDKNRSMDVLPLDRCLPFLISVDGESSNYINAALMDSHKQPAAFVVTQHPLPNTVADFWRLVFDYNCSSVVMLNEMDTAQFCMQYWPEKTSGCYGPIQVEFVSADIDEDIIHRIFRICNMARPQDGYRIVQHLQYIGWPAYRDTPPSKRSLLKVVRRLEKWQEQYDGREGRTVVHCLNGGGRSGTFCAICSVCEMIQQQNIIDVFHIVKTLRNNKSNMVETLEQYKFVYEVALEYLSSFEGHHHHHH”, the “soluble on expression in E. coli” value was “soluble”.
In the case of “MSLKTQQSYQQRDDKGTLYLVATPIGNLEDVTFRAIRTLKEADQIAAEDTRQTKKLLNHFDIATKLVSYHEHNKETMGKRLIDDLIEGRTIALVSDAGMPAISDPGYELVVSAIKEGIAVIPIPGANAAVTALIASGLPTESFQFIGFLPRQKKQRRQALEETKPTKATLIFYESPHRLKDTLDDMLLILGNRHVSICRELTKTYEEFLRGTLEEAVHWAREATIKGEFCLIVEGNGEKVEPEEVWWESLSPVQHVEHYIALGFRSKEAIKQVATDRGVPKRDIYNIYHQEEGHHHHHH”, the “soluble on expression in E. coli” value is reported as “soluble”.
With “MSLSEEKWAIITGADGGMGTEITRAVAEAGYHIIMACYRPSKAEPIRQRLVNETGNANMEVMAVDLSSMASTASFADRIVERHLPVSLLMNNAGTMETGLHITDDGFERTVSVNYLGPYLLTRKLLPALTCGARIVNMVSCTYAIGHLDFPDFFRQGRKGSFWRIPVYSNTKLALMLFTIELSERLREKGITVNAADPGIVSTDIITMHQWFDPLTDIFFRPFIRTPKKGASTAVGLLLDEAVAGVSGQLYASSHRKQLSEKYLCHVQQKQLWQETEQALERWLKEGHHHHHH” the “soluble on expression in E. coli” value was “soluble”.
For “SRSRPAGPALLLLLLFLGAAESVRRAQPPRRYTPDWPSLDSRPLPAWFDEAKFGVFIHWGVFSVPAWGSEWFWWHWQGEGRPQYQRFMRDNYPPGFSYADFGPQFTARFFHPEEWADLFQAAGAKYVVLTTKHHEGFTNWPSPVSWNWNSKDVGPHRDLVGELGTALRKRNIRYGLYHSLLEWFHPLYLLDKKNGFKTQHFVSAKTMPELYDLVNSYKPDLIWSDGEWECPDTYWNSTNFLSWLYNDSPVKDEVVVNDRWGQNCSCHHGGYYNCEDKFKPQSLPDHKWEMCTSIDKFSWGYRRDMALSDVTEESEIISELVQTVSLGGNYLLNIGPTKDGLIVPIFQERLLAVGKWLSINGEAIYASKPWRVQWEKNTTSVWYTSKGSAVYAIFLHWPENGVLNLESPITTSTTKITMLGIQGDLKWSTDPDKGLFISLPQLPPSAVPAEFAWTIKLTGVK”, the “soluble on expression in E. coli” value was “soluble”.
